From patent publication US20090048158A1, “Insulin-Like Growth Factor Binding Protein-4 Compounds and Methods for Inhibiting Angiogenesis and Tumor Growth in Mammalian Cells” (priority 2005, published 2009)

Test system: human brain endothelial cells (HBEC)
Test: Confocal microscopy internalization
Type: cell-based
Conditions: 100 nM AF647-CBP-4, 90 min (labelled IGFBP-4: unpublished observation)
Protocol: HBEC (100000 cell/well in a 24-well format plate) were seeded on human fibronectin- (40 μg/ml) coated cover slips (Bellco Biotechnology) in 400 μl HBEC media and grown until reached 80% confluence. Cells were then washed twice with D-MEM and incubated in D-MEM for 30 min at 37 C. Then, D-MEM was removed and replaced with 250 μl/well of D-MEM containing 100 nM AF647-CBP-4 conjugate for 90 min and then washed with PBS. Cells were counterstained with the membrane dye DiOC5(3) for 15 seconds and then washed with PBS. Imaging of cells was performed using Zeiss LSM 410 (Carl Zeiss, Thornwood, N.Y., USA) inverted laser scanning microscope equipped with an Argon\Krypton ion laser and a Plan-Apochromat 63X, NA 1.4. Confocal images of two fluoroprobes were sequentially obtained using 488 and 647 nm excitation laser lines to detect DiOC5(3) (510-525 nm emission) and Alexa 647 fluorescence (670-810 nm emission).

B1: fluorescently-labeled IGFBP-4: fluorescently-labeled IGFBP-4, unpublished observations (conjugate, UniProt P22692 22-258, looked up)
Insulin-like growth …: DEAIHCPPCSEEKLARCRPPVGCEELVREPGCGCCATCALGLGMPCGVYTPRCGSGLRCYPPRGVEKPLHTLMHGQGVCMELAEIEAIQESLQPSDKDEGDHPNNSFSPCSAHDRRCLQKHFAKIRDRSTSGGKMKVNGAPREDARPVPQGSCQSELHRALERLAASQSRTHEDLYIIPIPNCDRNGNFHPKQCHPALDGQRGKCWCVDRKTGVKLPGGLEPKGELDCHQLADSFRE
modifications: fluorescent label
notes: fluorescently-labeled IGFBP-4, unpublished observations
With B1 the “internalization into HBEC” value was “internalized into HBEC”.
